Measured values from paper PMC12210187.

Biological target: Stenotrophomonas maltophilia EntB (Stenotrophomonas maltophilia K279a)
Assay: SEC; analytical size-exclusion chromatography; estimated molecular weight 61.8 kDa

Substance: Stenotrophomonas maltophilia EntB (enzyme)
- stoichiometry N: 2
